This note sets out measurements from publication PMC2743916 (Structure (London, England : 1993), 2008).

The target in one series is T1, Spt4 (residues 1-99) (S. cerevisiae, UniProt P32914 1-99).
T1 sequence (looked up): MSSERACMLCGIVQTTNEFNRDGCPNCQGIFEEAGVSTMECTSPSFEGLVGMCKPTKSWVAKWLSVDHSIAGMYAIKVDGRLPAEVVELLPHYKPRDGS
Put plainly: crystal structure.

The series “crystal structure” concerns the molecule itself. Put plainly: crystal structure.

B1: Spt5NGN domain (residues 285-375) (domain or fragment, S. cerevisiae, UniProt P27692 285-375, looked up)
chain: ATIWGVRCRPGKEKELIRKLLKKKFNLDRAMGKKKLKILSIFQRDNYTGRIYIEAPKQSVIEKFCNGVPDIYISQKLLIPVQELPLLLKPN
For B1, in the series with Spt4 (residues 1-99), the binding result is on record as “binds”.

B2: Spt4/Spt5NGN fusion protein (other, S. cerevisiae)
chain: MSSERACMLCGIVQTTNEFNRDGCPNCQGIFEEAGVSTMECTSPSFEGLVGMCKPTKSWVAKWLSVDHSIAGMYAIKVDGRLPAEVVELLPHYKPRDGSGSATIWGVRCRPGKEKELIRKLLKKKFNLDRAMGKKKLKILSIFQRDNYTGRIYIEAPKQSVIEKFCNGVPDIYISQKLLIPVQELPLLLKPN
With B2, the binding result in the series “crystal structure” is “binds”.
